Measured values: IntAct's records for PubMed 12649160

B1: Fanconi anemia group C protein (Homo sapiens), Q00597 (parent)
chain: MAQDSVDLSCDYQFWMQKLSVWDQASTLETQQDTCLHVAQFQEFLRKMYEALKEMDSNTVIERFPTIGQLLAKACWNPFILAYDESQKILIWCLCCLINKEPQNSGQSKLNSWIQGVLSHILSALRFDKEVALFTQGLGYAPIDYYPGLLKNMVLSLASELRENHLNGFNTQRRMAPERVASLSRVCVPLITLTDVDPLVEALLICHGREPQEILQPEFFEAVNEAILLKKISLPMSAVVCLWLRHLPSLEKAMLHLFEKLISSERNCLRRIECFIKDSSLPQAACHPAIFRVVDEMFRCALLETDGALEIIATIQVFTQCFVEALEKASKQLRFALKTYFPYTSPSLAMVLLQDPQDIPRGHWLQTLKHISELLREAVEDQTHGSCGGPFESWFLFIHFGGWAEMVAEQLLMSAAEPPTALLWLLAFYYGPRDGRQQRAQTMVQVKAVLGHLLAMSRSSSLSAQDLQTVAGQGTDTDLRAPAQQLIRHLLLNFLLWAPGGHTIAWDVITLMAHTAEITHEIIGFLDQTLYRWNRLGIESPRSEKLARELLKELRTQV
partner: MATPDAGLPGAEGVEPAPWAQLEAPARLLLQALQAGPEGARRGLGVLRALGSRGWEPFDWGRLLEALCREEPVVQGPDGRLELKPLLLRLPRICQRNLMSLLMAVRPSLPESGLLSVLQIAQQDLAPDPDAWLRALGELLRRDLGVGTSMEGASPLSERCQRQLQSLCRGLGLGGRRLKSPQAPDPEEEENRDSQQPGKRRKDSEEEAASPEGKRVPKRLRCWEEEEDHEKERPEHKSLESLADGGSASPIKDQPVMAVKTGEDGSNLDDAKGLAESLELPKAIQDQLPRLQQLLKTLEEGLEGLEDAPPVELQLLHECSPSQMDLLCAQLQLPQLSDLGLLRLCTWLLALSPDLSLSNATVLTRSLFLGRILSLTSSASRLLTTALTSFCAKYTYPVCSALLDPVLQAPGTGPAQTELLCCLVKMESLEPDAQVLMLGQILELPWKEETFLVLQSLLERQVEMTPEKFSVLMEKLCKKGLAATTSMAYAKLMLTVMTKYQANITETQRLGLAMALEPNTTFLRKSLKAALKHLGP
B2: Fanconi anemia group G protein (Homo sapiens), O15287 (parent)
chain: MSRQTTSVGSSCLDLWREKNDRLVRQAKVAQNSGLTLRRQQLAQDALEGLRGLLHSLQGLPAAVPVLPLELTVTCNFIILRASLAQGFTEDQAQDIQRSLERVLETQEQQGPRLEQGLRELWDSVLRASCLLPELLSALHRLVGLQAALWLSADRLGDLALLLETLNGSQSGASKDLLLLLKTWSPPAEELDAPLTLQDAQGLKDVLLTAFAYRQGLQELITGNPDKALSSLHEAASGLCPRPVLVQVYTALGSCHRKMGNPQRALLYLVAALKEGSAWGPPLLEASRLYQQLGDTTAELESLELLVEALNVPCSSKAPQFLIEVELLLPPPDLASPLHCGTQSQTKHILASRCLQTGRAGDAAEHYLDLLALLLDSSEPRFSPPPSPPGPCMPEVFLEAAVALIQAGRAQDALTLCEELLSRTSSLLPKMSRLWEDARKGTKELPYCPLWVSATHLLQGQAWVQLGAQKVAISEFSRCLELLFRATPEEKEQGAAFNCEQGCKSDAALQQLRAAALISRGLEWVASGQDTKALQDFLLSVQMCPGNRDTYFHLLQTLKRLDRRDEATALWWRLEAQTKGSHEDALWSLPLYLESYLSWIRPSDRDAFLEEFRTSLPKSCDL
partner: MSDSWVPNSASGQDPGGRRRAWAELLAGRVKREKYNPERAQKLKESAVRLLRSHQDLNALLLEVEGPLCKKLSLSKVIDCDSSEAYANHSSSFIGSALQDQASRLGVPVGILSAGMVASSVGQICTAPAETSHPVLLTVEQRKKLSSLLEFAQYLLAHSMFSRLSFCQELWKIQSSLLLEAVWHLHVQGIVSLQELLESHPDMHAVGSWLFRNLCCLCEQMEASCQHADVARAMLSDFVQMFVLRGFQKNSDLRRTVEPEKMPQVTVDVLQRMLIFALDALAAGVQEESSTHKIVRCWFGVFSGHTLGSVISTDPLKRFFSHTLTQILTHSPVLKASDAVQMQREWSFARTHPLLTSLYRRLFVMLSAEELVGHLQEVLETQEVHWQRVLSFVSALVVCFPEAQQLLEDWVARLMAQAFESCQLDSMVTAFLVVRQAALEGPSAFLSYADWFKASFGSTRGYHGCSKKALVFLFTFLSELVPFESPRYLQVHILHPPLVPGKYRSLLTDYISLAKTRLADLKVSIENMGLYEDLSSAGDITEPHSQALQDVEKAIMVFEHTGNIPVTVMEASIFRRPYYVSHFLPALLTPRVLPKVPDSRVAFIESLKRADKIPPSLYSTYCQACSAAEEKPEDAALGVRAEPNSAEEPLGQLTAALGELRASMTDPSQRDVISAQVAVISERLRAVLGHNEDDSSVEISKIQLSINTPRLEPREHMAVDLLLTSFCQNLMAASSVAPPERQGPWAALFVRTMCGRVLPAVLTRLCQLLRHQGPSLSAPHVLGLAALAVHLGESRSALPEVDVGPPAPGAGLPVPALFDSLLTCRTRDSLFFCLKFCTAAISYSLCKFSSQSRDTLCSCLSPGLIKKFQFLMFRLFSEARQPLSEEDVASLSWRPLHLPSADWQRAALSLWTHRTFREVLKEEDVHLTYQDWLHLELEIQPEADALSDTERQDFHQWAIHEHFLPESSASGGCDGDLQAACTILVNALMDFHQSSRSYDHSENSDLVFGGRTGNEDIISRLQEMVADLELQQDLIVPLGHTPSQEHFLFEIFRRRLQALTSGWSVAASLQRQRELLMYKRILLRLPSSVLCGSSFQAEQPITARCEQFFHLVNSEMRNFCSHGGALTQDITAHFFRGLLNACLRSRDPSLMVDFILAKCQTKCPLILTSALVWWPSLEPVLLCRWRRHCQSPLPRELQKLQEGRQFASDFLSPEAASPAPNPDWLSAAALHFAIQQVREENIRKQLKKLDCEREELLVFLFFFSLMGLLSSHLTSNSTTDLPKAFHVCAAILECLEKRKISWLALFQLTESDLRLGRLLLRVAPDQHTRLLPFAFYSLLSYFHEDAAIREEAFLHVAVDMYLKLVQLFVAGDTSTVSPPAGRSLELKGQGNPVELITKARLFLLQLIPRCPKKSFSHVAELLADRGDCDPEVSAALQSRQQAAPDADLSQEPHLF

Variants of: B1
Conditions: with fance_human FANCE
For MAQDSVDLSCDYQFWMQKLSVWDQASTLETQQDTCLHVAQFQEFLRKMYEALKEMDSNTVIERFPTIGQLLAKACWNPFILAYDESQKILIWCLCCLINKEPQNSGQSKLNSWIQGVLSHILSALRFDKEVALFTQGLGYAPIDYYPGLLKNMVLSLASELRENHLNGFNTQRRMAPERVASLSRVCVPLITLTDVDPLVEALLICHGREPQEILQPEFFEAVNEAILLKKISLPMSAVVCLWLRHLPSLEKAMLHLFEKLISSERNCLRRIECFIKDSSLPQAACHPAIFRVVDEMFRCALLETDGALEIIATIQVFTQCFVEALEKASKQLRFALKTYFPYTSPSLAMVLLQDPQDIPRGHWLQTLKHISELLREAVEDQTHGSCGGPFESWFLFIHFGGWAEMVAEQLLMSAAEPPTALLWLLAFYYGPRDGRQQRAQTMVQVKAVLGHLLAMSRSSSLSAQDLQTVAGQGTDTDLRAPAQQLIRHLLLNFLLWAPGGHTIAWDVITLMAHTAEITHEIIGFLDQTLYRWNRLGIESPRSEKLARELLKEPRTQV [L554P], the “effect of a mutation on the interaction” value was “disrupting interaction”.

Variants of: B2
Conditions: with fanca_human FANCA
For L71P, the “effect of a mutation on the interaction” value was “disrupting interaction”.
